Our source for the response values is article PMC12805100 (2025).

B1: 3xFLAG-WT hTRPA1 [human] / CaM-agarose resin (calmodulin coupled to agarose) [not stated] (parent complex)
chain 1: MKRSLRKMWRPGEKKEPQGVVYEDVPDDTEDFKESLKVVFEGSAYGLQNFNKQKKLKRCDDMDTFFLHYAAAEGQIELMEKITRDSSLEVLHEMDDYGNTPLHCAVEKNQIESVKFLLSRGANPNLRNFNMMAPLHIAVQGMNNEVMKVLLEHRTIDVNLEGENGNTAVIIACTTNNSEALQILLKKGAKPCKSNKWGCFPIHQAAFSGSKECMEIILRFGEEHGYSRQLHINFMNNGKATPLHLAVQNGDLEMIKMCLDNGAQIDPVEKGRCTAIHFAATQGATEIVKLMISSYSGSVDIVNTTDGCHETMLHRASLFDHHELADYLISVGADINKIDSEGRSPLILATASASWNIVNLLLSKGAQVDIKDNFGRNFLHLTVQQPYGLKNLRPEFMQMQQIKELVMDEDNDGCTPLHYACRQGGPGSVNNLLGFNVSIHSKSKDKKSPLHFAASYGRINTCQRLLQDISDTRLLNEGDLHGMTPLHLAAKNGHDKVVQLLLKKGALFLSDHNGWTALHHASMGGYTQTMKVILDTNLKCTDRLDEDGNTALHFAAREGHAKAVALLLSHNADIVLNKQQASFLHLALHNKRKEVVLTIIRSKRWDECLKIFSHNSPGNKCPITEMIEYLPECMKVLLDFCMLHSTEDKSCRDYYIEYNFKYLQCPLEFTKKTPTQDVIYEPLTALNAMVQNNRIELLNHPVCKEYLLMKWLAYGFRAHMMNLGSYCLGLIPMTILVVNIKPGMAFNSTGIINETSDHSEILDTTNSYLIKTCMILVFLSSIFGYCKEAGQIFQQKRNYFMDISNVLEWIIYTTGIIFVLPLFVEIPAHLQWQCGAIAVYFYWMNFLLYLQRFENCGIFIVMLEVILKTLLRSTVVFIFLLLAFGLSFYILLNLQDPFSSPLLSIIQTFSMMLGDINYRESFLEPYLRNELAHPVLSFAQLVSFTIFVPIVLMNLLIGLAVGDIAEVQKHASLKRIAMQVELHTSLEKKLPLWFLRKVDQKSTIVYPNKPRSGGMLFHIFCFLFCTGEIRQEIPNADKSLEMEILKQKYRLKDLTFLLEKQHELIKLIIQKMEIISETEDDDSHCSFQDRFKKEQMEQRNSRWNTVLRAVKAKTHHLEP
chain 2: not shown

In this test the parent is B1. The test can be described thus: CaM-agarose pulldown, quantified immunoblot; 2 mM Ca2+; lysates of HEK293T cells; n = 3; read off a plot.
Regarding chain 1 W1103A, the response was ~0.36 normalized pulldown (relative to WT hTRPA1 0.1 μM Ca2+ average).
For the variant chain 1 K989S, chain 1 R996S, chain 1 K997S, chain 1 K1001S, chain 1 W1103A, the response is ~0.05 normalized pulldown (relative to WT hTRPA1 0.1 μM Ca2+ average).
